Experimental data: paper PMC4943160
Positions count from the first letter of the chain named.

Assays:
[1] = biological target: T1, rCosRWT (Campylobacter jejuni NCTC 11168) (UniProt Q0PBF4); experiment: EMSA
T1 sequence: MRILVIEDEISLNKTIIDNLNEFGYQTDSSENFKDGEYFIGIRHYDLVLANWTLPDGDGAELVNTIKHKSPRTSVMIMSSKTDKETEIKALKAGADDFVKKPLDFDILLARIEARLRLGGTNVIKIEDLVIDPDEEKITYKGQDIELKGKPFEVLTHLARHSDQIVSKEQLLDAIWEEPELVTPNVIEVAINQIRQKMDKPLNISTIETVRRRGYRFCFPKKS

[2] = biological target: T2, rCosRC218S C218S (Campylobacter jejuni NCTC 11168) (UniProt Q0PBF4); experiment: EMSA
T2 sequence: T1 sequence with C218S

Sequence | binding [1] | binding [2]
AATCCTTGCTTGCATTTTCGAAAGTTGCCTTAGCCATTAAAGCTTGTCCGTAAGCTGAATCAACACTAGCTTTAAATTTATCTTGTTCTATAATAAATAATGTTTGTCCTTTTTTTACCTTATCTCCAGCTTTAAAAAGTTTATTTACTATTACGCCGCTAACTTGAGGTT (double strand) [cmeA internal fragment] | no binding | –
GCACAACACCTAAAGCTAAAATAGTATTTTTTTGAAATAATTTCATGGTTTTGCCTTGAAAAATTAAATTAAAAATTGTAATATTTATTACAGAAATTTTTGGCTAATTATATCTTAATTTTGGTTAATAAAATTATTTTTTAAGCTTTGGAGCTATTGATTCCATTTAG (double strand) [81-176 cmeABC promoter] | – | binds
GCACAACACCTAAAGCTAAAATAGTATTTTTTTGAAATAATTTCATGGTTTTGCCTTGAAAAATTAAATTAAAAATTGTAATTTTTATTACAAAAATTTTTGGCTAATTATATCTTAATTTTGGTTAATAAAATTATTTTTTAAGCTTTGGAGCTATTGATTCCATTTAG (double strand) [11168 cmeABC promoter] | binds | –
